Where two headings read alike, the source gives them in different places.
Experiments:
alpha-cobratoxin [1] = molecular target: T1, alpha-cobratoxin (Naja kaouthia, UniProt P01391); assay: BLI
T1 chain: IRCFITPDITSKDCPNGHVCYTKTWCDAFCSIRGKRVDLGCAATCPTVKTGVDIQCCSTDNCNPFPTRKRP

alpha-bungarotoxin [2] = molecular target: T2, alpha-bungarotoxin (Bungarus multicinctus, UniProt P60615); assay: BLI
alpha-cobratoxin [3] = molecular target: T1, alpha-cobratoxin; assay: BLI
alpha-cobratoxin [4] = molecular target: T1, alpha-cobratoxin; assay: BLI
alpha-cobratoxin [5] = molecular target: T1, alpha-cobratoxin; assay: SPR
alpha-cobratoxin [6] = molecular target: T1, alpha-cobratoxin; assay: BLI
alpha-bungarotoxin [7] = molecular target: T2, alpha-bungarotoxin; assay: BLI; remark: listed apart in the source
alpha-cobratoxin [8] = molecular target: T1, alpha-cobratoxin; assay: SPR

T2 sequence (P60615 22-95): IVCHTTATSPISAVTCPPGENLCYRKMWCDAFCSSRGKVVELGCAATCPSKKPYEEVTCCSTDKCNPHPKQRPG

B1: 2554_01_D11 (antibody, V domains shown)
VH: QVQLVQSGAEVKKPGSSVKVSCKASGGTFSSYAISWVRQAPGQGLEWMGGIIPIFGTANYAQKFQGRVTITADESTSTAYMELRSLRSDDTAVYYCARDNLGYCSGGSCYSDYYYYYMDVWGQGTLVTVSS
VL: SNFMLTQPRSVSESPGKTVTISCTRSSGSIGSDYVHWYQQRPGSSPTTVIYEDNQRPSGVPDRFSGSIDSSSNSASLTISGLKTEDEADYYCQSYDRSNHEVVFGGGTKLTVL
B1 gave a koff (alpha-cobratoxin [1]) of 0.000327 s⁻¹, a Kd (alpha-bungarotoxin [2]) of 122 nM and a Kd (alpha-cobratoxin [3]) of 2.9 nM. For the same binder, the Kd (alpha-cobratoxin [4]) was 2.91 nM, the Kd (alpha-cobratoxin [5]) was 10.4 nM and the koff (alpha-cobratoxin [6]) was 0.000396 s⁻¹. The koff (alpha-bungarotoxin [7]) was 0.00388 s⁻¹ and the Kd (alpha-cobratoxin [8]) was 2.3 nM.
